According to publication PMC5507356, “Characterization of the molecular chaperone ClpB from the pathogenic spirochaete Leptospira interrogans” (PLoS ONE, 2017):

Biological target: the molecule itself
Test: AUC; sedimentation velocity, 1.2 mg/ml ClpBLi with 2 mM ATPγS, 20°C, 50 mM Tris-HCl pH 7.5, 200 mM KCl, 20 mM MgCl2, 1 mM EDTA, 2 mM β-mercaptoethanol, 5% glycerol

B1: ClpB from Leptospira interrogans (ClpBLi), recombinant (natural protein)
chain: not shown
notes: Chaperone protein ClpB, Leptospira interrogans; intact protein runs at ~100 kDa; Monomer without nucleotide, hexamer with ATPγS; source: E. coli BL21(DE3), purified (Co-NTA IMAC, Superdex 200 gel filtration); not shown: His6, N-terminal, cleaved
stoichiometry N: 6
